Reference: paper PMC10371797

B1: ZC3H11A(wt)-HA [human] / PABPN1-Flag [not stated] (parent)
chain 1: MPNQGEDCYFFFYSTCTKGDSCPFRHCEAAIGNETVCTLWQEGRCFRQVCRFRHMEIDKKRSEIPCYWENQPTGCQKLNCAFHHNRGRYVDGLFLPPSKTVLPTVPESPEEEVKASQLSVQQNKLSVQSNPSPQLRSVMKVESSENVPSPTHPPVVINAADDDEDDDDQFSEEGDETKTPTLQPTPEVHNGLRVTSVRKPAVNIKQGECLNFGIKTLEEIKSKKMKEKSKKQGEGSSGVSSLLLHPEPVPGPEKENVRTVVRTVTLSTKQGEEPLVRLSLTERLGKRKFSAGGDSDPPLKRSLAQRLGKKVEAPETNIDKTPKKAQVSKSLKERLGMSADPDNEDATDKVNKVGEIHVKTLEEILLERASQKRGELQTKLKTEGPSKTDDSTSGARSSSTIRIKTFSEVLAEKKHRQQEAERQKSKKDTTCIKLKIDSEIKKTVVLPPIVASRGQSEEPAGKTKSMQEVHIKTLEEIKLEKALRVQQSSESSTSSPSQHEATPGARRLLRITKRTGMKEEKNLQEGNEVDSQSSIRTEAKEASGETTGVDITKIQVKRCETMREKHMQKQQEREKSVLTPLRGDVASCNTQVAEKPVLTAVPGITRHLTKRLPTKSSQKVEVETSGIGDSLLNVKCAAQTLEKRGKAKPKVNVKPSVVKVVSSPKLAPKRKAVEMHAAVIAAVKPLSSSSVLQEPPAKKAAVAVVPLVSEDKSVTVPEAENPRDSLVLPPTQSSSDSSPPEVSGPSSSQMSMKTRRLSSASTGKPPLSVEDDFEKLIWEISGGKLEAEIDLDPGKDEDDLLLELSEMIDS
chain 2: MAAAAAAAAAAGAAGGRGSGPGRRRHLVPGAGGEAGEGAPGGAGDYGNGLESEELEPEELLLEPEPEPEPEEEPPRPRAPPGAPGPGPGSGAPGSQEEEEEPGLVEGDPGDGAIEDPELEAIKARVREMEEEAEKLKELQNEVEKQMNMSPPPGNAGPVIMSIEEKMEADARSIYVGNVDYGATAEELEAHFHGCGSVNRVTILCDKFSGHPKGFAYIEFSDKESVRTSLALDESLFRGRQIKVIPKRTNRPGISTTDRGFPRARYRARTTNYNSSRSRFYSGFNSRPRGRVYRGRARATSWYSPY

Variants of: B1
Experiment: co-IP (PABPN1-Flag bait), Western blot quantification
Settings: with PABPN1-Flag; three individual experiments; read off a plot

ratio to parent	Variant
0.17	chain 1 C66A
0.57	chain 1 C37A
0.24	chain 1 C8A
